Experimental data from patent US20120252730A1, “PLATELET AGGREGATION INHIBITORS” (UNIVERSITY OF CHICAGO, priority 2009, published 2012).
maleimide monolayer = not defined here

B1: Ac-GAGDSC (SEQ ID NO: 30), immobilized on a monolayer array (peptide)
peptide: Ac-GAGDSC(maleimide monolayer)-NH2
modifications: not fully specified; printed as Ac-GAGDSC; reading uncertain
notes: also called 0.5% Ac-GAGDSC; Ac-GXGDSC with X = Ala
B2: Ac-GLGDSC (SEQ ID NO: 34), immobilized on a monolayer array (peptide)
peptide: Ac-GLGDSC(maleimide monolayer)-NH2
modifications: not fully specified; printed as Ac-GLGDSC; reading uncertain
notes: also called 0.5% Ac-GLGDSC; Ac-GXGDSC with X = Leu
B3: Ac-GGGDSC (SEQ ID NO: 29), immobilized on a monolayer array (peptide)
peptide: Ac-GGGDSC(maleimide monolayer)-NH2
modifications: not fully specified; printed as Ac-GGGDSC; reading uncertain
notes: also called 0.5% Ac-GGGDSC; Ac-GXGDSC with X = Gly
B4: Ac-GVGDSC (SEQ ID NO: 32), immobilized on a monolayer array (peptide)
peptide: Ac-GVGDSC(maleimide monolayer)-NH2
modifications: not fully specified; printed as Ac-GVGDSC; reading uncertain
notes: also called 0.5% Ac-GVGDSC; Ac-GXGDSC with X = Val
B5: Ac-GKGDSC (SEQ ID NO: 31), immobilized on a monolayer array (peptide)
peptide: Ac-GKGDSC(maleimide monolayer)-NH2
modifications: not fully specified; printed as Ac-GKGDSC; reading uncertain
notes: also called 0.5% Ac-GKGDSC; Ac-GXGDSC with X = Lys
B6: Ac-GIGDSC (SEQ ID NO: 33), immobilized on a monolayer array (peptide)
peptide: Ac-GIGDSC(maleimide monolayer)-NH2
modifications: not fully specified; printed as Ac-GIGDSC; reading uncertain
notes: also called 0.5% Ac-GIGDSC; Ac-GXGDSC with X = Ile

The molecules below were run against T1, human αIIbβ3 integrin on transfected CHO K1 cells (human, UniProt P08514 32-1039; P05106 27-788) (assay: Ac-GXGDSC peptide array, adhesion of αIIbβ3 CHO K1 cells). Conditions: not given.
T1 construct: whole, on cells; CHO K1 cells transfected with human αIIb and β3 cDNA; about 30% of the cells expressed the receptor; also called platelet receptor; platelet integrin
Method: (§1) After 15-minute of incubation, cells (200,000/mL) were added to substrates in 24-well culture plates. After 2 hour incubation at 37° C. and 5% CO₂, media was exchanged for F-12K medium supplemented with 10% FBS, 1× penicillin/streptomycin and cRGDFG (SEQ ID NO: 12) (300 μM). After 2 hours, the substrates were washed gently with warm PBS, and adherent cells were immediately fixed with 4% formaldehyde for 30 minutes, visualized with a 20× objective of a Zeiss Axiovert 200 inverted microscope, and photographed. For cell adhesion assays mediated by Ac-GXGDSC (SEQ ID NO: 26), αIIbβ3 CHO K1 cells were incubated on a 5×4 circle (1 mm diameter) array for 1 hour with serum-free F-12K medium supplemented with cRGDFG (SEQ ID NO: 12) (300 μM) and 1× penicillin/streptomycin, followed by media exchange to F-12K medium supplemented with 10% FBS, 1× penicillin/streptomycin and cRGDFG (SEQ ID NO: 12) (300 μM. The substrates were washed with warm PBS, and adherent cells were immediately fixed and permeabilized with 4% formaldehyde and 0.5% Triton-X for 30 minutes. Fixed cells were stained with DAPI, visualized and photographed with a 20× objective as described. The number of adherent cells per field of view was counted using Image J software. Cells were counted in at least three fields for each circle, and each experiment was repeated 3 times. The degree of adhesion is reported as a percentage of cells that adhere relative to control experiments with the peptide Ac-GRGDSC (SEQ ID NO: 28).
To further assay the binding of peptide ligands to the […] integrin for XGD peptide ligands, an array was used to assess the adhesion of cells to peptides having the arginine residue substituted with each amino acid other than cysteine (e.g., A, D, E, F, G, H, I, K, L, M, N, P, Q, R, S, T, V, W, and Y). The library of Ac-GXGDSC (SEQ ID NO: 26) peptides was synthesized and immobilized in an array with each peptide occupying a 1 mm diameter region of the monolayer (FIG. 61). A suspension of αIIbβ3 CHO K1 cells was applied to the entire array and cells were allowed to attach to regions presenting the various peptides. The substrates were then rinsed and stained with DAPI, and the cells were counted to determine the relative efficiency of cell attachment to peptides in the library.

Row | Molecule | binding result
1 | B1 | binds
2 | Ac-GSGDSC(maleimide monolayer)-NH2 (not fully specified; printed as Ac-GXGDSC; reading uncertain, Member of the Ac-GXGDSC library) [Ac-GXGDSC (SEQ ID NO: 26) with X = S, immobilized on a monolayer array] | no binding
3 | Ac-GPGDSC(maleimide monolayer)-NH2 (not fully specified; printed as Ac-GXGDSC; reading uncertain, Member of the Ac-GXGDSC library) [Ac-GXGDSC (SEQ ID NO: 26) with X = P, immobilized on a monolayer array] | no binding
4 | Ac-GDGDSC(maleimide monolayer)-NH2 (not fully specified; printed as Ac-GXGDSC; reading uncertain, Member of the Ac-GXGDSC library) [Ac-GXGDSC (SEQ ID NO: 26) with X = D, immobilized on a monolayer array] | no binding
5 | Ac-GMGDSC(maleimide monolayer)-NH2 (not fully specified; printed as Ac-GXGDSC; reading uncertain, Member of the Ac-GXGDSC library) [Ac-GXGDSC (SEQ ID NO: 26) with X = M, immobilized on a monolayer array] | no binding
6 | B2 | binds
7 | Ac-GHGDSC(maleimide monolayer)-NH2 (not fully specified; printed as Ac-GXGDSC; reading uncertain, Member of the Ac-GXGDSC library) [Ac-GXGDSC (SEQ ID NO: 26) with X = H, immobilized on a monolayer array] | no binding
8 | Ac-GQGDSC(maleimide monolayer)-NH2 (not fully specified; printed as Ac-GXGDSC; reading uncertain, Member of the Ac-GXGDSC library) [Ac-GXGDSC (SEQ ID NO: 26) with X = Q, immobilized on a monolayer array] | no binding
9 | B3 | binds
10 | Ac-GYGDSC(maleimide monolayer)-NH2 (reading uncertain; also: printed as Ac-GXGDSC, Member of the Ac-GXGDSC library) [Ac-GXGDSC (SEQ ID NO: 26) with X = Y, immobilized on a monolayer array] | no binding
11 | B4 | binds
12 | B5 | binds
13 | B6 | binds
14 | Ac-GFGDSC(maleimide monolayer)-NH2 (not fully specified; printed as Ac-GXGDSC; reading uncertain, Member of the Ac-GXGDSC library) [Ac-GXGDSC (SEQ ID NO: 26) with X = F, immobilized on a monolayer array] | no binding
15 | Ac-GWGDSC(maleimide monolayer)-NH2 (reading uncertain; also: printed as Ac-GXGDSC, Member of the Ac-GXGDSC library) [Ac-GXGDSC (SEQ ID NO: 26) with X = W, immobilized on a monolayer array] | no binding
16 | Ac-GTGDSC(maleimide monolayer)-NH2 (not fully specified; printed as Ac-GXGDSC; reading uncertain, Member of the Ac-GXGDSC library) [Ac-GXGDSC (SEQ ID NO: 26) with X = T, immobilized on a monolayer array] | no binding
17 | Ac-GRGDSC(maleimide monolayer)-NH2 (not fully specified; printed as Ac-GRGDSC; reading uncertain, also called 0.5% Ac-GRGDSC) [Ac-GRGDSC (SEQ ID NO: 28), immobilized on a monolayer array] | binds

These molecules were tested on αIIbβ3 CHO K1 cells (assay: Cell adhesion assay: αIIbβ3 CHO K1 cells on SAMs presenting immobilized peptides). Conditions: 0.5% peptide SAM; in presence of 300 μM cRGDFG.
Assay type: cell-based, human
Method: Monolayers were prepared as described (Houseman, et al., 2003). Glass coverslips were sonicated for 30 minutes in deionized ultrafiltered (DIUF) water and then 30 minutes in ethanol and then dried under a stream of nitrogen. Titanium (4 nm) and then gold (29 nm) were evaporated onto the coverslips using an electron beam evaporator (Boc Edwards) at a rate of 0.05-0.10 nm/s and at a pressure of 1 μTorr. The gold-coated coverslips were immersed in an ethanolic solution of maleimide-terminated disulfide (1%) and tri(ethylene glycol)-terminated disulfide (99%) overnight at room temperature. The total disulfide concentration was 1 mM. The substrates were washed with DIUF water, ethanol and then dried under a stream of nitrogen.
The pcDNA3.1 vectors that express human αIIb or β3, respectively, have been described previously (see e.g., Litvinov et al. (2006) Biochemistry, 45: 4957-4964). CHO K1, BHK 21 and HT1080 cells were purchased from ATCC. All CHO cells were cultured at 37° C. and 5% CO2 using F12K medium supplemented with 10% FBS and pen/strep. […] CHO K1 cells were transfected with αIIb and β3 cDNA with FuGENE following the supplier's protocol. Transfected cells were selected with 1 mg/mL zeocin and 1 mg/mL geneticin.
as §1, with “Cysteine-terminated peptides were immobilized onto maleimide-presenting SAMs by adding 40 μL of 1 mM peptide solution to the biochip and incubating at 37° C. for 1 hour. Substrates were rinsed with DIUF water and ethanol and dried under a stream of nitrogen. αIIbβ3 CHO K1 cells were detached from culture plates with 1 mM EGTA/2 mM EDTA in PBS (phosphate-buffered saline), rinsed with serum-free F-12K medium, centrifuged and resuspended in serum-free F-12K medium supplemented with cRGDFG (SEQ ID NO: 12) (300 μM) and 1× penicillin/streptomycin. After 15-minute” for “After 15-minute”, “and 5% CO2, media was” for “and 5% CO₂, media was”
Monolayers were prepared that presented a mixture of maleimide groups and tri(ethylene glycol) groups with the former present at a density of 0.5% (relative to total alkanethiolate). The monolayers were treated with cysteine-terminated peptides to immobilize the ligands (FIG. 1A). In each case mass spectrometry was used to verify immobilization of the peptides in high yield (Su et al., 2002).
The adhesion and spreading of αIIbβ3 CHO K1 cells to monolayers presenting GRGDSC (SEQ ID NO: 11), HHLGGAKQAGDVC (SEQ ID NO: 21) and a mixture of both peptides was compared. […]

Row | Molecule | adhesion of αIIbβ3 CHO K1 cells to monolayer presenting the peptide
18 | GGAKQAC (completely synthesized peptide) | failed to adhere
19 | GDVC (completely synthesized peptide) | failed to adhere
20 | GHHLGGADQAGKVC (scrambled peptide) | lack of cell attachment
21 | KQAGDVC (completely synthesized peptide) | adhered and spread
22 | KQAGDC (completely synthesized peptide) | adhered
23 | AGDVC (completely synthesized peptide) | adhered
24 | QAGDVC (completely synthesized peptide) | adhered
25 | HHLGGAC (completely synthesized peptide) | failed to adhere
26 | KQAGC (completely synthesized peptide) | failed to adhere
